Where two headings read alike, the source gives them in different places. No end group written: not given here.
Legend:
[1] = target: calmodulin (CaM), wild type, bacterially expressed (rat) (UniProt P0DP29); assay: native gel or EMSA; gel-mobility shift of CaM with 0.5–4× molar ratios of peptide; native gels with 4 M urea, 0.1 mM CaCl2 in running buffer; incubation ≥1 h at 4 °C in 150 mM NaCl, 50 mM Tris-Cl pH 7.5, 1 mM CaCl2
[2] = target: calmodulin (CaM), wild type, bacterially expressed (rat) (UniProt P0DP29); assay: ITC; 10 mM HEPES pH 7.0, 0.1 mM CaCl2 (results: 0.5 mM CaCl2), 25 °C, one-set-of-sites model, mean of three replicates
[3] = target: C-CaM(75–148), C-terminal lobe of CaM (human) (UniProt P0DP23); assay: as above
[4] = target: calmodulin (CaM), wild type, bacterially expressed (rat) (UniProt P0DP29); assay: as above; remark: listed apart in the source
[5] = target: CaM_(1234), CaM with all four Ca^2+-binding sites mutated (human) (UniProt P0DP23); assay: as above
Ca^2+–CaM = assay: Gel mobility-shift assay with CaM; format: binding, rat; conditions: molar ratio of CaMB peptide to CaM for saturating gel-mobility shift; native PAGE, 0.1 mM CaCl2, ratios 0.5–4×, incubated ≥1 h at 4 °C; three replicate experiments
Method: (§1) We followed protocols that we have described previously in an analysis of CaM binding with snail or human L-type calcium channel peptides in the presence of 0.1 or 0.5 mM CaCl2-containing solution ([9]).
(§2) Rat CaM was purified using phenyl-Sepharose 6 Fast-Flow (High Sub) (GE Healthcare), packed to ∼10 ml volume, by gravity flow at 4 °C. Codon-optimized CaM was cloned in pET9d, a T7 Escherichia coli expression vector. CaM was transformed into BL21 DE3 E. coli and grown at 37 °C and 200 rpm to OD of 0.4–0.6 (for Luria Broth, LB) or 0.5–0.9 (for SuperBroth, SB), at which point samples were induced by 1 mM added isopropyl β-D-1-thiogalactopyranoside and grown for another 4 (for SB) to 6 (for LB) h. Robust expression of soluble CaM was confirmed by SDS-PAGE. Cells were collected by centrifugation at ∼4000 × g, then lysed in high-salt buffer (0.1 M Tris-Cl, pH 7.5, 0.5 M NaCl, 0.5 M ammonium sulfate, 1 mM DTT) using an Avestin Emulsiflex homogenizer at 15,000–20,000 p.s.i. with jacketed water cooling, through which the cells were passed ∼3× on average. The cell lysate was clarified by centrifugation at 20,000 rpm in an SS-34 rotor (∼50,000 × g) at 4 °C for 30 min. To the cleared lysate, CaCl2 was added to a final concentration of 10 mM. The lysate was then applied to the gravity phenyl-Sepharose column equilibrated with the same high salt buffer (and 1 mM CaCl2). […]

[6] = Aggregation of peptides in buffers; format: physicochemical; conditions: observation during CD (PBS: 10 mM sodium phosphate pH 7.3, 137 mM NaCl) and ITC sample preparation
Method: CD measurements were performed using a Jasco-715 spectropolarimeter (Jasco Instruments, Easton, MD), using the following parameters: 250–190-nm range, 50 nm/min speed, with 1-s response time, 1-nm bandwidth, and 100-millidegree sensitivity at room temperature. 16–25 accumulations were gathered depending on signal quality. Recordings were made in a 1-mm cuvette, in 10 mM sodium phosphate buffer with 0.1 mM added CaCl2, and used as baseline, which was subtracted from each recording. For CaM and CaMB peptide spectra, the same solution of 10 μM CaM was scanned before stock (1 mM) peptide was added in incremental amounts before being scanned again. The resulting spectra were subtracted (e.g. CaM and CaMB peptide-CaM alone) to extract the spectrum corresponding to the change associated with adding the peptide. Every recording was an average of at least 16 accumulations and subsequently corrected for protein concentration (converted to units of mean residue ellipticity). These were smoothed and exported into ASCII format for analysis with Excel and either SOMCD or Dichroweb K2d algorithm (http://dichroweb.cryst.bbk.ac.uk)^6 ([92], [93]). […]
(§3) Heat gain or heat requirements in the sample cell (for exothermic binding or endothermic binding, respectively) correspond to the direction of the injection peaks measured in the isothermal titration calorimeter (MicroCal iTC200, Malvern Instruments, UK). […]

[7] = target: T1, Ca^2+–CaM (wild-type calmodulin) (Rattus norvegicus, UniProt P0DP29); assay: Isothermal titration calorimetry of CaMB peptides with wild-type CaM; conditions: ITC, one-set-of-sites fit, 25 °C, 10 mM HEPES pH 7.0, 0.1 mM CaCl2 (b23 says 0.5 mM CaCl2), mean of n = 3 (Fig. 6A), read-out: Binding affinity (Ka)
T1 construct: His tag; made in house; host or cells: E. coli BL21 DE3 (pET9d)
Method: as §1
as §2, with “average.” for “average. The cell lysate was clarified by centrifugation at 20,000 rpm in an SS-34 rotor (∼50,000 × g) at 4 °C for 30 min. To the cleared lysate, CaCl2 was added to a final concentration of 10 mM. The lysate was then applied to the gravity phenyl-Sepharose column equilibrated with the same high salt buffer (and 1 mM CaCl2).”
as §3

[8] = target: T2, N-CaM (N-lobe of CaM, 74-aa construct) (Homo sapiens, UniProt P0DP23); assay: Isothermal titration calorimetry with N-lobe of CaM; conditions: ITC, one-set-of-sites fit, 25 °C, 10 mM HEPES pH 7.0, 0.1 mM CaCl2, mean of n = 3 (Fig. 6A), read-out: Binding affinity (Ka)
T2 construct: partial CaMs: N-CaM(1–74), C-CaM(75–148); His tag; made in house; host or cells: bacteria (E. coli)
Source text: (§4) We have used human CaM and associated CaM mutants that we have described before ([9]), CaM(1–44) and partial CaMs: N-CaM(1–74), C-CaM(75–148), and CaMs that simulate CaM binding in the absence of calcium, by substitution of glutamate residues in the two calcium-binding sites in the N-terminal lobe (CaM12) or C-terminal lobe (CaM34), or mutation of all four calcium-binding sites (CaM1234) of CaM. CaM–GFP used for Western blotting is a construct consisting of GFP fused to the C terminus of CaM expressed in pcDNA3.1 (Cell Signaling Technology) ([83]). EGFP expression vector was obtained by subcloning EGFP from pEGFP-C1 (BD Biosciences) into the multiple cloning site of pcDNA3.1. The CaM1234 overexpression construct contained bicistronic marker mRFP (to generate a red color) ([46]) to distinguish from the channel expression with bicistronic EGFP (to generate a green color). The CaM1234 overexpression construct also containing CaM shRNA knockdown includes two short hairpin sequences described above to knock down CaM (Calm1,2,3 genes) ([46][–][48]). […]
as §3

[9] = target: T3, C-CaM (C-lobe of CaM, 74-aa construct) (Homo sapiens, UniProt P0DP23); assay: Isothermal titration calorimetry with C-lobe of CaM; conditions: ITC, one-set-of-sites fit, 25 °C, 10 mM HEPES pH 7.0, 0.1 mM CaCl2, mean of n = 3 (Fig. 6A), read-out: Binding affinity (Ka)
T3 construct: partial CaMs: N-CaM(1–74), C-CaM(75–148); His tag; made in house; host or cells: bacteria (E. coli)
Source text: as §4, §3

human Cav3.2 CaMB peptide (26-mer gating brake peptide)
CaMB peptide to CaM ratio required for a saturating gel-mobility shift (× (peptide to CaM ratio)) [1]: 1.5
Kd [2]: 196 nM
Kd [3]: 690 nM
stoichiometry N [4]: 1

human Cav3.1 CaMB peptide (26-mer gating brake peptide)
CaMB peptide to CaM ratio required for a saturating gel-mobility shift (× (peptide to CaM ratio)) [1]: 1.5
Kd [2]: 36 nM
Kd [5]: 543 nM
Kd [4]: 42.7 nM
stoichiometry N [4]: 1

YEELLKYLVYILRKAARRLAQVSRAA [Cav3.1]
[CaMB Peptide] for Complete shift (Ca^2+–CaM): 1.5 x
aggregation [6]: severe aggregation issues in PBS

YEEIFQYVCHILRKAKRRALGLYQAL [Cav3.3]
[CaMB Peptide] for Complete shift (Ca^2+–CaM): > 4.0 x
aggregation [6]: severe aggregation issues in PBS

YSELLKLVAQVYRRVKRKVIKTYYKT [LCav3]
Kd [7]: 12.4 nM

human Cav3.3 CaMB peptide (26-mer gating brake peptide)
CaMB peptide to CaM ratio required for a saturating gel-mobility shift (× (peptide to CaM ratio)) [1]: > 4
Kd [4]: 383 nM
stoichiometry N [4]: 1

snail LCav3 CaMB peptide (26-mer gating brake peptide)
CaMB peptide to CaM ratio required for a saturating gel-mobility shift (× (peptide to CaM ratio)) [1]: 1
Kd [2]: 10 nM
fold reduced affinity compared with wild-type CaM [5]: 349 fold
stoichiometry N [4]: 1

YEELLKYVGHIFRKVKRRSLRLYARW [Cav3.2]
Kd [8]: 31.1 nM
Kd [7]: 187 nM
Kd [9]: 691 nM
